The values below come from US20250312444A1 (BEIJING TUO JIE BIOPHARMACEUTICAL, published 2025).

A word on the Kd: it is a measure of binding affinity in units of concentration. As usually defined, the koff is a measure of how fast the partners let go of each other. By kon is commonly meant a measure of how fast the partners come together. The low end stands for slower complex formation, the high end for faster complex formation.

The target in experiment [1] is T1, rat serum albumin (rat).
T1 chain: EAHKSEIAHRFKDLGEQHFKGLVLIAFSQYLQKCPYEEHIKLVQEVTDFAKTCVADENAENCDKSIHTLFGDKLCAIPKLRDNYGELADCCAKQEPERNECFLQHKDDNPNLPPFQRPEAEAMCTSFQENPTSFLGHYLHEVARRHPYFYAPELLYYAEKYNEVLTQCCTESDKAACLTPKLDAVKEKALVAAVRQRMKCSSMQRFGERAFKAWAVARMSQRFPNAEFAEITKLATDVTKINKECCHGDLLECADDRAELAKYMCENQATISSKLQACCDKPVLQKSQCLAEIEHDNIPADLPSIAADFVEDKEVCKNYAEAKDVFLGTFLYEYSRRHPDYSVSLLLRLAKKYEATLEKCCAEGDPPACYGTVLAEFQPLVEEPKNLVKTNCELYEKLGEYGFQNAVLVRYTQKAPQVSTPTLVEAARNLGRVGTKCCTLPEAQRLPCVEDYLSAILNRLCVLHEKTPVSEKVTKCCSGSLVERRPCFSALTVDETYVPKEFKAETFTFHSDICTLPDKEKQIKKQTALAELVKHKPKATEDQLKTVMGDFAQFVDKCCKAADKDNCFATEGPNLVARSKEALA
Description: SPR Biacore T200, fusion protein captured by anti-VHH antibody, albumin as analyte. The method, then:
(§1) Coupling of an anti-VHH antibody (MonoRab™ Rabbit Anti-Camelid VHH Cocktail, Genescript, Cat No. A02014) to an S series CM5 sensor chip (GE, Cat No. 29-1049-88) was performed using an amino coupling kit (GE, Cat No. BR-1000-50). The antibody was diluted to 10 μg/mL with 10 mM sodium acetate (pH 4.5) (GE, Cat No. BR-1003-50). After the CM5 chip was activated with EDC/NHS, the diluted anti-VHH antibody was flowed over the chip to reach a surface response value of about 5000 RU, and then the chip was blocked with ethanolamine for later use.
(§2) The albumin from each species was serially diluted in a gradient with 1XHBS-EP (10 mM HEPES, pH 7.4, 150 mM NaCl, 3 mM EDTA, 0.05% Surfactant P20). The test fusion protein molecule was captured using the anti-VHH antibody-coupled chip, with a response value of about 30 RU. Then, different concentrations of serum albumin were flowed over the surface of the chip for 3 min at a flow rate of 50 μL/min, with a dissociation time of 1-10 min (the dissociation time varied depending on the species of albumin). After the end of each cycle, the chip was regenerated using 10 mM glycine-hydrochloric acid (pH 1.5) (GE, Cat No. BR-1003-54). The reaction signals were detected in real-time using Biacore T200 (GE) to obtain the association and dissociation curves, and the data obtained were fitted with a Langmuir 1:1 binding model using the BIAevaluation version 4.1 software at appropriate concentration points to obtain the affinity values.
A general note: Surface plasmon resonance follows binding to a sensor surface in real time, without labels.

Experiment [2] has as its target human serum albumin (HSA) (human). The experiment is described as above. The method, then: as §1, §2
In experiment [3] the target is mouse serum albumin (mSA) (mouse). The experiment can be described thus: SPR Biacore T200, albumin amine-coupled, fusion protein as analyte. The method, then: (§3) Coupling of serum albumins from different species to an S series CM5 sensor chip (GE, Cat. 29-1049-88) was performed using an amino coupling kit (GE, Cat No. BR-1000-50). The albumin from each species was diluted to 2 μg/mL. After the CM5 chip was activated with EDC/NHS, the diluted albumin was flowed over the chip to reach a surface response value of about 200 (180 to 230) RU, and then the chip was blocked with ethanolamine. The blank control channel also needed to be activated with EDC/NHS and blocked with ethanolamine. […] The samples of 0051 and 0054 at different concentrations were separately flowed through the albumin-coupled and blank channels for 3 min at a flow rate of 50 μL/min, with a dissociation time of 4 min. After the end of each cycle, the chip was regenerated using 10 mM glycine-hydrochloric acid (pH 1.5) (GE, Cat. #BR-1003-54). The reaction signals were detected in real-time using Biacore T200 (GE) to obtain the association and dissociation curves, and the data obtained were fitted with a Langmuir 1:1 binding model using the BIAevaluation version 4.1 software at appropriate concentration points to obtain the affinity values.

In experiment [4] the target is T1, rat serum albumin. The description is as above. The procedure:
as §3

The target in experiment [5] is human serum albumin (HSA) (human). The experiment is described as above. The method, then:
as §3

In experiment [6] the target is T2, human RXFP1 receptor (human, UniProt Q9HBX9 1-757).
T2 sequence (looked up): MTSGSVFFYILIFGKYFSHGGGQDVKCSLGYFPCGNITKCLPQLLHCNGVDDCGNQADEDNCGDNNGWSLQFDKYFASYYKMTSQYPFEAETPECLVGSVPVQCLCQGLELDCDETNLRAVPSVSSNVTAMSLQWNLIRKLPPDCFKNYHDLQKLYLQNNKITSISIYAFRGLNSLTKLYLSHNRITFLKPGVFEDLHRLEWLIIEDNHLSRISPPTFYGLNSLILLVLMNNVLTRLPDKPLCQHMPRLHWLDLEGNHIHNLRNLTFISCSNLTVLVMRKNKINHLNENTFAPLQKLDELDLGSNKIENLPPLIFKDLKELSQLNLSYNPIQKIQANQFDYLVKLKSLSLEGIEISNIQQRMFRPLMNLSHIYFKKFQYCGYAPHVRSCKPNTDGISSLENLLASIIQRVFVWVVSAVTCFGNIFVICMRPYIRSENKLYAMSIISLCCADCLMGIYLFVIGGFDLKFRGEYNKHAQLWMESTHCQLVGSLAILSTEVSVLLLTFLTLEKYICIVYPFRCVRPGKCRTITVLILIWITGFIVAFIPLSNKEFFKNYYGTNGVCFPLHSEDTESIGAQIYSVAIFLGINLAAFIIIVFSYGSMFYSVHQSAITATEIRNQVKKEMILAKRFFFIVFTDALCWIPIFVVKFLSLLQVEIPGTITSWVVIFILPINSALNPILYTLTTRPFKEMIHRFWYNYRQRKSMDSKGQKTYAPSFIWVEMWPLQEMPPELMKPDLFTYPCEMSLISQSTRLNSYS
Description: cell-based or functional assay.

B1: 0051 (other)
chain: EVQLLESGGGLVQPGGSLRLSCAASGFTFLTSCMGWFRQAPGKEREGVSSIYTVGGSTFYTNSVKGRFTISRDNSKNTLYLQMNSLRAEDTAVYYCAAGSPARCRLRDPTTFDYWGQGTLVTVSSGGGGQGGGGQGGGGQGGGGQGGGGQSWMEEVIKLCGRELVRAQIAICGMSTWSGGGSGGSGGGQLYSALANKCCHVGCTKRSLARFC
notes: Single-chain fusion: anti-HSA VHH, linker, relaxin-2 B chain, linker, relaxin-2 A chain; also called fusion protein 0051; molecule 0051
On to B1, for which the Kd in experiment [1] came to 156 nM; in experiment [2], 20.2 nM; in experiment [3], 37.9 nM; in experiment [4], 1.95 nM; in experiment [5], 0.0422 nM. The koff in experiment [1] turned out to be 0.00581 s⁻¹; in experiment [2] it was 0.0011 s⁻¹; in experiment [3] it was 0.0471 s⁻¹; in experiment [4] it was 0.00439 s⁻¹; in experiment [5] it was 0.000207 s⁻¹. The kon in experiment [1] is 37200 M⁻¹ s⁻¹; in experiment [2], 54500 M⁻¹ s⁻¹; in experiment [3] it was 1.24e+06 M⁻¹ s⁻¹; in experiment [4] it was 2.25e+06 M⁻¹ s⁻¹; in experiment [5], 4.91e+06 M⁻¹ s⁻¹. In addition, in experiment [6], the “EC50 (nM), cAMP production in THP1 cells, 1% HSA” value was 28.4 nM. Moreover, the “EC50 (nM), cAMP production in THP1 cells, without HSA” value in experiment [6] worked out at 3.83 nM.
